Reference: US20250382344A1, “Soluble GLP1/GIP/NPY2 Receptor Triple Agonists” (Boehringer Ingelheim International GmH, priority 2024, published 2025)
Like-named read-outs stand apart in the source and are kept apart here. *1 amine or outer side, *2 acyl side, *3 side chain or, on linkers, in order; H or OH if unused. Where no end group is shown, it is not given here. Side-chain parts run from the residue outwards. [ ]: non-standard residue; d: D form. The star is where a group is joined. C20 diacid = O=C(O)CCCCCCCCCCCCCCCCCCC(=O)*; C18 diacid = O=C(O)CCCCCCCCCCCCCCCCC(=O)*; γGlu = O=C(O)[C@H](CCC(=O)[*:2])N[*:1]; εLys = N[C@@H](CCCCN[*:1])C(=O)[*:2]; dOR = not defined here; Aib = CC(C)(N)C(=O)O

T1: hGIPR (Homo sapiens, UniProt P48546)
T1 construct: expressed in transfected cells; host or cells: CHO CRE-luciferase reporter cells
T1 sequence (P48546 22-466): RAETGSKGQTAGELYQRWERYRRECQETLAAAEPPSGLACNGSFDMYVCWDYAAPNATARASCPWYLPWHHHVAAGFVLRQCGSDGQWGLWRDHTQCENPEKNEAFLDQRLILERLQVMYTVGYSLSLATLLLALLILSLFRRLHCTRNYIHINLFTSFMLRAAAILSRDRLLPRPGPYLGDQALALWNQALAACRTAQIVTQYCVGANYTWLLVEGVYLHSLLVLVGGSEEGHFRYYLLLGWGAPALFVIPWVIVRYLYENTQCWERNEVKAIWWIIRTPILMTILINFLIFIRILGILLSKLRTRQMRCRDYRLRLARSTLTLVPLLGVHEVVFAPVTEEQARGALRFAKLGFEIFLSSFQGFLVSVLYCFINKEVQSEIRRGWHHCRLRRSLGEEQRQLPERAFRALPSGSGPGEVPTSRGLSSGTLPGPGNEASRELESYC

T2: hNPY2R (Homo sapiens, UniProt P49146)
T2 construct: expressed in transfected cells; host or cells: HEK-293 CRE-luciferase reporter cells
T2 sequence (P49146 1-381): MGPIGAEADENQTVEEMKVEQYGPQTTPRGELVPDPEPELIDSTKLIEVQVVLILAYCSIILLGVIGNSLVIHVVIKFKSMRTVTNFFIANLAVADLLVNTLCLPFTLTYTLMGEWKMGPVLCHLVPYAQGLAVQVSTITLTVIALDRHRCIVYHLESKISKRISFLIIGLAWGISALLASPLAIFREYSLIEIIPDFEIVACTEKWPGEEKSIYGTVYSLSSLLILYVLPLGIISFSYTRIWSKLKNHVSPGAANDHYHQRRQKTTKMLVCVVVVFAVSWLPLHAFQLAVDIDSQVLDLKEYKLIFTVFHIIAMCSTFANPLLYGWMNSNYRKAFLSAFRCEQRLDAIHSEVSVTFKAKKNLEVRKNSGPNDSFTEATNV

T3: human neuropeptide Y2 receptor (human, UniProt P49146 1-381)
T3 sequence (looked up): T2 sequence (P49146 1-381)

T4: human GIP receptor (human, UniProt P48546 22-466)
T4 sequence (looked up): T1 sequence (P48546 22-466)

B1: Compound 14 (peptide)
peptide: YXEGTFTSDYSIXLEKQAQXEFVRHLINKXTRQRY
modifications: Aib at 2, 13, 20, 30; Lys29 epsilon-amino acylated with C18DA-gGlu-gGlu-gGlu-gGlu-gGlu-AHX; C-terminal amide

How the values were obtained:
hGIPR = target: T1, hGIPR; experiment: hGIPR CreLuc assay in 0.5% and 100% plasma (CHO CRE-luciferase reporter cells); type: cell-based; conditions: 0.5% human plasma, read-out: hGIPR 0.5% hP
hNPY2R = target: T2, hNPY2R; experiment: hNPY2R CreLuc assay in 0.5% and 100% plasma (HEK-293 CRE-luciferase reporter cells); type: cell-based; conditions: HEK-293 reporter cells
From the text: CHO and HEK-293 recombinant cell lines express a luciferase reporter gene under control of the CAMP responsive element (CRE). As a second recombinant protein the GLP-1 and NPY2 receptors were expressed in the reporter gene HEK cells, and the GIP receptor was expressed in the reporter gene CHO cells, respectively. Stimulation of these recombinant cells with an agonist leads to an increase of intracellular CAMP levels. In the presence of CAMP, the transcription factor CRE binding protein (CREB) binds to the CRE and to the CREB binding protein (CBP), which leads to transcription of the luciferase reporter gene. Peptides upon serial-dilution in 100% DMSO were transferred into 384-well assay plates with 5 μl pre-dispensed assay buffer (1×HBSS, 20 mM HEPES, pH7.4 supplemented with 0.5% human plasma) using acoustic dispensing on a Labcyte ECHO. Cryo-preserved transgenic reporter gene cells were thawed in assay buffer. 20 μl (10.000 cells/well) were added to the plate with the peptides and incubated for 4 hours at 37° C. in a humidified incubator. Following incubation, assay plates are equilibrated to room temperature, followed by addition of 25 μl of Bright-Glo™ Luciferase reagent, incubation at room temperature for 10 minutes and analysis of luminescence (Envision Reader). […] EC50 values were calculated by non-linear regression using sigmoid concentration-response with variable slope.
The same assays were run in the presence of 100% plasma with no additional buffer constituents.

[1] = Solubility in 0.1 M phosphate buffer at pH 7; type: physicochemical; conditions: 0.1 M phosphate buffer at pH 7, 10 mg/mL final peptide concentration, shaking 2 hours at room temperature, peptides as TFA-salts; measured sample pH 6.5-7.0
[2] = target: T3, human neuropeptide Y2 receptor; experiment: cell-based or functional assay
human GIP receptor = target: T4, human GIP receptor; experiment: cell-based or functional assay
human GLP-1 receptor = human GLP-1 receptor (human, UniProt P43220 24-463); experiment: cell-based or functional assay

Molecule | EC50 (hGIPR) [nM] | solubility at 2 h [1] [µg/mL] | EC50, CreLuc reporter, 100% hP [2] [nM] | EC50, CreLuc reporter, 0.5% hP (human GIP receptor) [nM] | EC50, CreLuc reporter, 0.5% hP (human GLP-1 receptor) [nM] | EC50, CreLuc reporter, 0.5% hP [2] [nM] | further results
CC[C@H](C)[C@H](NC(=O)[C@H](CC(C)C)NC(=O)[C@H](Cc1c[nH]cn1)NC(=O)[C@H](CCCNC(=N)N)NC(=O)[C@@H](NC(=O)[C@H](Cc1ccccc1)NC(=O)[C@H](CCC(=O)O)NC(=O)C(C)(C)NC(=O)[C@H](CCC(N)=O)NC(=O)[C@H](C)NC(=O)[C@H](CCC(N)=O)NC(=O)[C@H](CCCCN)NC(=O)[C@H](CCC(=O)O)NC(=O)[C@H](CC(C)C)NC(=O)C(C)(C)NC(=O)[C@@H](NC(=O)[C@H](CO)NC(=O)[C@H](Cc1ccc(O)cc1)NC(=O)[C@H](CC(=O)O)NC(=O)[C@H](CO)NC(=O)[C@@H](NC(=O)[C@H](Cc1ccccc1)NC(=O)[C@@H](NC(=O)CNC(=O)[C@H](CCC(=O)O)NC(=O)C(C)(C)NC(=O)[C@@H](N)Cc1ccc(O)cc1)[C@@H](C)O)[C@@H](C)O)[C@@H](C)CC)C(C)C)C(=O)N[C@@H](CC(N)=O)C(=O)N[C@@H](CCCCNC(=O)[C@@H](N)CCCCNC(=O)CC[C@H](NC(=O)CC[C@H](NC(=O)CC[C@H](NC(=O)CC[C@H](NC(=O)CC[C@H](NC(=O)CC[C@H](NC(=O)CCCCCCCCCCCCCCCCCCC(=O)O)C(=O)O)C(=O)O)C(=O)O)C(=O)O)C(=O)O)C(=O)O)C(=O)N[C@@H](CC(C)C)C(=O)N[C@H](C(=O)N[C@@H](CCCNC(=N)N)C(=O)N[C@@H](CCC(N)=O)C(=O)N[C@@H](CCCNC(=N)N)C(=O)N[C@@H](Cc1ccc(O)cc1)C(N)=O)[C@@H](C)O [Compound 39, Y-Aib-E-G-T-F-T-S-D-Y-S-I-Aib-L-E-K-Q-A-Q-Aib-E-F-V-R-H-L-I-N-K(1,3)-L-T-R-Q-R-Y-NH2.C20DA-gGlu-gGlu-gGlu-gGlu-gGlu-gGlu-eLys(1,2)] | 0.9 | 4500 | – | – | – | – | EC50 (hNPY2R; 100% human plasma, read-out: hNPY2R 100% hP): 119 nM
CC[C@H](C)[C@H](NC(=O)[C@H](CC(C)C)NC(=O)[C@H](Cc1c[nH]cn1)NC(=O)[C@H](CCCNC(=N)N)NC(=O)[C@@H](NC(=O)[C@H](Cc1ccccc1)NC(=O)[C@H](C)NC(=O)C(C)(C)NC(=O)[C@H](CCC(N)=O)NC(=O)[C@H](C)NC(=O)[C@H](CCC(N)=O)NC(=O)[C@H](CCCNC(=N)N)NC(=O)[C@H](CCC(=O)O)NC(=O)[C@H](CC(C)C)NC(=O)C(C)(C)NC(=O)[C@@H](NC(=O)[C@H](CO)NC(=O)[C@H](Cc1ccc(O)cc1)NC(=O)[C@H](CC(=O)O)NC(=O)[C@H](CO)NC(=O)[C@@H](NC(=O)[C@H](Cc1ccccc1)NC(=O)[C@@H](NC(=O)CNC(=O)[C@H](CCC(=O)O)NC(=O)C(C)(C)NC(=O)[C@@H](N)Cc1ccc(O)cc1)[C@@H](C)O)[C@@H](C)O)[C@@H](C)CC)C(C)C)C(=O)N[C@@H](CC(N)=O)C(=O)N[C@@H](CCCCNC(=O)[C@@H](N)CCCCNC(=O)CC[C@H](NC(=O)CC[C@H](NC(=O)CC[C@H](NC(=O)CC[C@H](NC(=O)CC[C@H](NC(=O)CC[C@H](NC(=O)CCCCCCCCCCCCCCCCCCC(=O)O)C(=O)O)C(=O)O)C(=O)O)C(=O)O)C(=O)O)C(=O)O)C(=O)NC(C)(C)C(=O)N[C@H](C(=O)N[C@@H](CCCNC(=N)N)C(=O)N[C@@H](CCC(N)=O)C(=O)N[C@@H](CCCNC(=N)N)C(=O)N[C@@H](Cc1ccc(O)cc1)C(N)=O)[C@@H](C)O [Compound 171, Y-Aib-E-G-T-F-T-S-D-Y-S-I-Aib-L-E-R-Q-A-Q-Aib-A-F-V-R-H-L-I-N-K(1,3)-Aib-T-R-Q-R-Y-NH2.C20DA-gGlu-gGlu-gGlu-gGlu-gGlu-gGlu-eLys(1,2)] | 0.4 | – | – | – | – | – | EC50 (hNPY2R; 0.5% human plasma, read-out: hNPY2R 0.5% hP): 9.9 nM
CC[C@H](C)[C@H](NC(=O)[C@H](CO)NC(=O)[C@H](Cc1ccc(O)cc1)NC(=O)[C@H](CC(=O)O)NC(=O)[C@H](CO)NC(=O)[C@@H](NC(=O)[C@H](Cc1ccccc1)NC(=O)[C@@H](NC(=O)CNC(=O)[C@H](CCC(=O)O)NC(=O)C(C)(C)NC(=O)[C@@H](N)Cc1ccc(O)cc1)[C@@H](C)O)[C@@H](C)O)C(=O)NC(C)(C)C(=O)N[C@@H](CC(C)C)C(=O)N[C@@H](CCC(=O)O)C(=O)N[C@@H](CCCCN)C(=O)N[C@@H](CCC(N)=O)C(=O)N[C@@H](C)C(=O)N[C@@H](CCC(N)=O)C(=O)NC(C)(C)C(=O)N[C@@H](C)C(=O)N[C@@H](Cc1ccccc1)C(=O)N[C@H](C(=O)N[C@@H](CCCNC(=N)N)C(=O)N[C@@H](Cc1c[nH]cn1)C(=O)N[C@@H](CC(C)C)C(=O)N[C@@H](Cc1ccc(O)cc1)C(=O)N[C@@H](CC(N)=O)C(=O)N[C@@H](CCCCNC(=O)[C@@H](N)CCCCNC(=O)CC[C@H](NC(=O)CC[C@H](NC(=O)CC[C@H](NC(=O)CC[C@H](NC(=O)CC[C@H](NC(=O)CC[C@H](NC(=O)CCCCCCCCCCCCCCCCC(=O)O)C(=O)O)C(=O)O)C(=O)O)C(=O)O)C(=O)O)C(=O)O)C(=O)NC(C)(C)C(=O)N[C@H](C(=O)N[C@@H](CCCNC(=N)N)C(=O)N[C@@H](CCC(N)=O)C(=O)N[C@@H](CCCNC(=N)N)C(=O)N[C@@H](Cc1ccc(O)cc1)C(N)=O)[C@@H](C)O)C(C)C [Compound 58, Y-Aib-E-G-T-F-T-S-D-Y-S-I-Aib-L-E-K-Q-A-Q-Aib-A-F-V-R-H-L-Y-N-K(1,3)-Aib-T-R-Q-R-Y-NH2.C18DA-gGlu-gGlu-gGlu-gGlu-gGlu-gGlu-eLys(1,2)] | – | 3300 | – | – | – | – | EC50 (hNPY2R; hNPY2R 100% hP (nM), 100% human plasma): 40 nM
Y[Aib]EGTFTSDYSI[Aib]LDKQAQ[Aib]AFVRHLINK([εLys-γGlu-γGlu-γGlu-γGlu-γGlu-γGlu-γGlu-C20 diacid])[Aib]TRQ[dOR]Y-NH2 (reading uncertain) [Compound 16] | – | – | 59.1 | 0.5 | 0.7 | – | EC50, CreLuc reporter, 100% hP (human GIP receptor): 2 nM; EC50, CreLuc reporter, 100% hP (human GLP-1 receptor): 1.8 nM
B1 | – | – | 388 | 0.1 | 0.3 | 16.8 | –
Y[Aib]EGTFTSDYSI[Aib]LEKQAQ[Aib]AFVRHLINK([γGlu-γGlu-γGlu-γGlu-γGlu-γGlu-C18 diacid])LTRQRY-NH2 [Compound 12] | – | – | 140 | 0.8 | 1.8 | 47.6 | –
